Measured values: patent US7338932
Values belong to the substance of their own block, whether it stands above or below them.

What was measured:
[1] = molecular target: EA2 acceptor peptide (…) (rat); experiment: cell-based or functional assay
[2] = system: EA2 acceptor peptide (PTTDSTTPAPTTK)
[3] = system: MUC7 acceptor peptide (Ac-CPPTPSATTPAPPSSSAPPETTAA)
[4] = molecular target: MUC2 acceptor peptide (…) (human); experiment: cell-based or functional assay
Sequence of MUC2 acceptor peptide (…) (human) (peptide, as listed by the source): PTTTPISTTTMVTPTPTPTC

Sequence of purified human recombinant GalNAc-T2 (enzyme source of Examples 1-6) (chain, as listed by the source): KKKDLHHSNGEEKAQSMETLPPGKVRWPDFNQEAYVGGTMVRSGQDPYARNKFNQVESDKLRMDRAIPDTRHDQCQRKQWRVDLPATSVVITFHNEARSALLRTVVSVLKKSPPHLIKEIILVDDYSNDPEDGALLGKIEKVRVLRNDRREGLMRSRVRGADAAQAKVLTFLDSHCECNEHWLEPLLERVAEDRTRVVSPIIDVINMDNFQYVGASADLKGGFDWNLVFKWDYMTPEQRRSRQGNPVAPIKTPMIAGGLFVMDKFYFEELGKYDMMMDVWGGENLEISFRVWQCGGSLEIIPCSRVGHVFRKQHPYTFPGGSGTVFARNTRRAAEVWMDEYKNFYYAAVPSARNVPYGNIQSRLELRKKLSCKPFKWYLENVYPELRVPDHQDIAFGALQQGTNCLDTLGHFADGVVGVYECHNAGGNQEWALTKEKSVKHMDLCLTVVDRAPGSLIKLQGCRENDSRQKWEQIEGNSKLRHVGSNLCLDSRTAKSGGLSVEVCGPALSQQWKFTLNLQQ

- galactosyltransferase activity with UDP-Gal donor substrate, no inhibitor [1]: 6.3 nmol/min/mL
Substance: human recombinant GalNAc-T3 (enzyme source of Example 6) (from UniProt Q14435 52-633)

Substance: purified human recombinant GalNAc-T2 (enzyme source of Examples 1-6)
- GalNAc-T2 activity with UDP-Gal [2]: EA2, 1.5 nmol/min/ml
- GalNAc-T2 activity with UDP-Gal [3]: Muc7, 13 nmol/min/ml

- galactosyltransferase activity with UDP-Gal donor substrate, no inhibitor [4]: 90 nmol/min/mL
Substance: purified human recombinant GalNAc-T2 (enzyme source of Examples 1-6) (from UniProt Q10471 52-571)
